Assay results reported in patent US20230041071A1 (NATIONAL INSTITUTE OF BIOLOGICAL SCIENCES BEIJING, published 2023).

Legend:
mAREG-EGFd-mFc = target: T1, mAREG-EGFd-mFc (mouse, UniProt P31955 135-177); test: SPR (Biacore T200)
T1 construct: also called EGF domain of mAREG (aa135-177) fused with mFc tag; not shown: mFc tag (Fc fragment of mouse IgG2a as for hAREG-EGFd-mFc)
T1 chain: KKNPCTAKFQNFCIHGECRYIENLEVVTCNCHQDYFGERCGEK

hAREG-H164N variant = target: T2, hAREG-H164N variant (human, UniProt P15514 142-184); test: SPR (Biacore T200)
T2 construct: also called H164N variant of hAREG-EGFd
T2 chain: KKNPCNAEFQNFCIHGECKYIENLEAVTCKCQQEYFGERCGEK

hAREG-E149K variant = target: T3, hAREG-E149K variant (human, UniProt P15514 142-184); test: SPR (Biacore T200)
T3 construct: also called E149K variant of hAREG-EGFd
T3 chain: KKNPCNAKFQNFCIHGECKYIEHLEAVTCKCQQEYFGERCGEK

mAREG-N164H variant = target: T4, mAREG-N164H variant (mouse, UniProt P31955 135-177, limits assumed); test: SPR (Biacore T200)
T4 construct: Position is in hAREG numbering
T4 chain: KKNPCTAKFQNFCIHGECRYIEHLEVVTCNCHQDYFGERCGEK

hAREG-EGFd-mFc = target: T5, hAREG-EGFd-mFc (human; mouse, UniProt P15514 142-184); test: SPR, Biacore T200; mAb captured on anti-human Fc chip, antigen in solution
T5 construct: Expressed in 293F cells; not shown: Fc fragment of mouse IgG2a
T5 chain: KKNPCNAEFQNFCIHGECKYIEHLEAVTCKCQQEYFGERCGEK
Procedure: (§1) To evaluate affinities of different mouse hybridoma mAbs or their humanized and engineered variants, SPR measurement was performed using Biacore T200 instrument. mAbs were captured on anti-human Fc CM5 biosensor chip surface, hAREG-EGFd-mFc, mAREG-EGFd-mFc or hAREG-98aa (purchased from PeproTech, cat #100-55B) in serial dilutions were injected over antibody-bound surface, followed by a dissociation phase. Association rates (Ka) and dissociation rates (Kd) were calculated using the one-to-one Langmuir binding model (BIA Evaluation Software, GE Life Sciences). The equilibrium dissociation constant (KD) was calculated as the ratio kd/ka.

hAREG-98aa = target: T6, hAREG-98aa (human, UniProt P15514 101-198); test: as above
T6 construct: Bought protein
T6 sequence (looked up): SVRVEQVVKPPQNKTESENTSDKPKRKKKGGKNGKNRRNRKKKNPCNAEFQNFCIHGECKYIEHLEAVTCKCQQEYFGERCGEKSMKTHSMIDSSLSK
Procedure: as §1

B1: hu9C12v6 (antibody, V domains shown)
VH: EVQLVESGGGLVKPGGSLRLSCAASGFTFSSYPMSWVRQAPEKGLEWVSTISTGGTYTYYPDSVKGRFTISRDNAKNSLYLQMNSLRAEDTAVYYCARQGPIYYGNYYYGMDVWGQGTTVTVSS
VL: DVVMTQSPLSLPVTLGDPASISCRSSQSLVNQEGETYLHWYQQRPGQSPKLLIYKVSNRFDGVPDRFSGSGSGTDFTLKISRVEAEDVGVYYCSQSTHVPYTFGQGTKLEIK
notes: Humanized 9C12 variant
- binding result (mAREG-EGFd-mFc): no binding
- binding result (hAREG-H164N variant): no binding
- binding result (hAREG-E149K variant): binds
- binding result (mAREG-N164H variant): binds
- Kd (hAREG-EGFd-mFc): 398 pM
- koff (hAREG-EGFd-mFc): 0.000389 s⁻¹
- kon (hAREG-EGFd-mFc): 978000 M⁻¹ s⁻¹
- Kd (hAREG-98aa): 188 pM
- koff (hAREG-98aa): 0.00457 s⁻¹
- kon (hAREG-98aa): 2.43e+07 M⁻¹ s⁻¹
